Assay results: publication PMC3299563, “Salt Bridges Regulate Both Dimer Formation and Monomeric Flexibility in HdeB and May Have a Role in Periplasmic Chaperone Function” (Journal of Molecular Biology, 2011)
Changes are numbered by the printed parent chain. Names and notes keep the numbering of the source.

Legend:
[1] = target: HdeB E41Q, C-terminal His6 E41Q (UniProt P0AET2); assay: Intrinsic tryptophan fluorescence (emission maximum, intensity, acrylamide Stern-Volmer quenching constant, steady-state anisotropy) as a function of pH; conditions: pH 1.5-7.5; 20 °C; Not stated as a number. It varies with the McIlvaine mixing ratio; 10 mM KCl below pH 2.6.; McIlvaine buffer (mixtures of 0.1 M citric acid and 0.2 M Na2HPO4) for pH 2.6-7; 10 mM KCl adjusted with HCl for more ac
[2] = target: HdeB (acid stress chaperone HdeB), wild type, C-terminal His6 (UniProt P0AET2); assay: as above; conditions: pH 1.5-7.5; 20 °C; Not stated as a number. It varies with the McIlvaine mixing ratio; 10 mM KCl below pH 2.6.; McIlvaine buffer (mixtures of 0.1 M citric acid and 0.2 M Na2HPO4) for pH 2.6-7; 10 mM KCl adjusted with HCl for more ac
Asp76 = Asp76 (UniProt position 76, TLNETDLTQIP); assay: fluorescence; conditions: 20 °C; not stated (McIlvaine buffer: mixtures of 0.1 M citric acid and 0.2 M Na2HPO4; 10 mM KCl adjusted with HCl for more acid solutions); McIlvaine buffer (citric acid / Na2HPO4) for pH 2.6-7; 10 mM KCl/HCl for more acid solutions; 50 uM protein, no ligand; dimer at neutral pH, monomer below about pH 3
[3] = target: the molecule itself; assay: SEC; gel filtration at neutral pH (pH 7)
[4] = target: the molecule itself; assay: other fluorescence titration; emission maximum against HdeB concentration (1-100 μM, as monomers) at pH 7.5; dimer to monomers
[5] = target: the molecule itself; assay: crystal structure; methylated HdeB-His6 at 15 mg/ml; 50% (v/v) polyethylene glycol 400, 0.1 M acetate pH 4.5, 0.2 M Li2SO4; 1.5 Å; dimer found with PISA
[6] = target: the molecule itself; assay: other fluorescence titration; intrinsic tryptophan fluorescence (emission maximum, acrylamide quenching, anisotropy) against pH 1.5 to 7.5; 50 μM HdeB, McIlvaine buffer, 20 °C; apparent pKa; neutral side of the transition

Molecule: HdeB E41Q, C-terminal His6 E41Q
- shift of the apparent pKa of dimer dissociation relative to wild type (50 uM) [1]: apparent pKa ∼ 0.5 pH units higher than that of wild type

Molecule: HdeB (acid stress chaperone HdeB), wild type, C-terminal His6
- effective pKa of dimer dissociation (midpoint of the dimer-to-monomer transition at 50 uM) [2]: effective pKa ≈ 3 for dissociation of the dimer

Molecule: Acid stress chaperone HdeB (HdeB-His6 WT) (Escherichia coli)
- pKa (Asp76): 2.9

Molecule: Acid stress chaperone HdeB H59N (His6-tagged) (Escherichia coli; H59N)
- pKa (Asp76): 3.5

B1: HdeB D76N (natural protein, E. coli, UniProt P0AET2 30-108, looked up)
chain: ANESAKDMTCQEFIDLNPKAMTPVAWWMLHEETVYKGGDTVTLNETNLTQIPKVIEYCKKNPQKNLYTFKNQASNDLPN
notes: HdeB, E. coli, with D76N; residue numbers count on the precursor; Probably made from the HdeB-His6 construct; also called D67N (as printed in two places)
- binding result [3]: binds

B2: HdeB E41Q (natural protein, E. coli, UniProt P0AET2 30-108, looked up)
chain: B1 chain with E12Q, N47D
notes: HdeB, E. coli, with E41Q; residue numbers count on the precursor; The methods speak of 'purified HdeB-His6 WT and E41Q samples'; probably the same construct and host as the wild type; also called E41Q mutant; source: purified mutant protein
- Kd [4]: 34 µM

B3: HdeB-His6 WT (natural protein, E. coli, UniProt P0AET2 30-108, looked up)
chain: B1 chain with N47D
notes: HdeB, E. coli periplasmic acid-stress chaperone; begins at A30; A30 to A102 ordered in the crystal plus six disordered C-terminal residues; residue numbers count on the precursor; Cloned with hdeA (hdeAB genes) in pTrc99A; primers are in the Supplementary Data; also called HdeB WT; wild type; source: E. coli MG1655ΔhdeAB, plasmid pTrcHdeABHis6, 1 mM IPTG, purified (Ni resin, gel filtration); not …
- stoichiometry N [3]: 2
- Kd [4]: < 1 µM

B4: HdeB (methylated) (natural protein, E. coli, UniProt P0AET2 30-108, looked up)
chain: B1 chain with N47D
modifications: reductively methylated lysines: doubly methylated K48, K88 and K93; some modification of K35, K65, K89 and K99; K82 apparently unmodified
notes: HdeB, E. coli; A30 to A102 ordered, six C-terminal residues and the His-tag disordered; residue numbers count on the precursor; A selenomethionine variant, treated identically, was used for phasing only; also called methylated HdeB-His6; HdeB after reductive methylation; source: E. coli MG1655ΔhdeAB, purified (Ni resin, gel filtration), then reductive methylation and gel filtration; not shown: …
- stoichiometry N [5]: 2

B5: HdeB H59N (natural protein, E. coli, UniProt P0AET2 30-108, looked up)
chain: B1 chain with H30N, N47D
notes: HdeB, E. coli, with H59N; residue numbers count on the precursor; Probably made from the HdeB-His6 construct; also called H59N mutant
- binding result [6]: binds
